{"source": "paper PMC4363471", "about": "“Crystal Structure of Helicobacter pylori Pseudaminic Acid Biosynthesis N-Acetyltransferase PseH: Implications for Substrate Specificity and Catalysis” (PLoS ONE, 2015)", "proteins": {"B1": {"name": "Pseudaminic acid biosynthesis protein H (PseH) from Helicobacter pylori (enzyme, UniProt O25094 1-180, looked up)", "chain": "MKKNYSYKNIQAIDFTNLNDGEKLLVLEFRNHPNTALWMYSTFISLKTHLQFIEDLKNSPNHRYFLFKEEGVYLGVGSITKINFFHKHGYLGIYKNPFLKNGGETILKALEFIAFEEFQLHSLHLEVMENNFKAIAFYEKNHYELEGRLKGFISKDKEFIDVLLYYKDKKGYNDQSLLKL", "notes": "PseH, N-acetyltransferase (EC 2.3.1.202) of H. pylori, 21 kDa, residues 1-180; the construct carries an additional GIDPFT fragment (cloning artifact); it is probably N-terminal, left after cleavage of a vector tag (surmised); Crystallised with the cofactor acetyl-CoA; also called flagellin modification protein H; FlmH; source: recombinant, purified as previously described [14]"}}, "biological_target": "the molecule itself", "assay": "SEC; Superdex 200 HiLoad 26/60 gel filtration, 50 mM Tris/HCl pH 8.0, 200 mM NaCl; molecular weight from a calibration plot of log MW versus retention volume"}
{"protein": "B1", "values": [{"measurement": "stoichiometry N", "value": 2}]}
